The target of the test is human NK1 receptor (transiently expressed in HEK293 cells) (human) (UniProt P25103). Nature of the test: cell-based or functional assay.

Here are results for one sequence from patent publication US20110039801A1.

Chain of UniProt P25103 (P25103 whole entry): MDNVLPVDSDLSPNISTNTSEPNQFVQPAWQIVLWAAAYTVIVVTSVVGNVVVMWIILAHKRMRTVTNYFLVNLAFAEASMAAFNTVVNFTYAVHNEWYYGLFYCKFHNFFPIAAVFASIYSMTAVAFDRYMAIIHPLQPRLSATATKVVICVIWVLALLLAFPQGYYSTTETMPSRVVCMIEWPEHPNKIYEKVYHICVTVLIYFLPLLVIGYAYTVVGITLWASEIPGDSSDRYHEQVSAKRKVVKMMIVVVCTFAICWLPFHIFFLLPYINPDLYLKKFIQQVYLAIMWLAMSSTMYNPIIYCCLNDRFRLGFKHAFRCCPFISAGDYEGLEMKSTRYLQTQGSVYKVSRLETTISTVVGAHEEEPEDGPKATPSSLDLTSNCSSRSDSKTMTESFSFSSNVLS

Consider “SPANTIDE II (peptidic analog of substance P) (peptide)”, for which the NK1 receptor antagonistic activity (calcium imaging, inhibition of the substance P (100 µM) induced rise in fluorescence) was found to be 65%.
